The supplement of paper PMC9876800

System: peptide library, one residue held at a place counted from the S/T acceptor
Assay: relative phosphorylation of the sub-library (ratio to the mean residue at this position); higher = residue favoured
Conditions: human
Procedure, shortened: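 Each biotinylated degenerate peptide sub-library fixed one residue at one position around a central Ser/Thr and was incubated with a purified recombinant kinase, a human or orthologue construct, in 384-well plates. The 90 min reactions, under kinase-specific conditions, contained 50 μM peptide and 50 μM ATP spiked with γ-32P-ATP. Phosphorylation was read by phosphorimaging spots on streptavidin membranes and quantifying them by densitometry. Relative sub-library phosphorylation expresses each value as a ratio to the mean residue at that position.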

MAP3K19, construct: aa941-end, sequence (Q56UN5 941-1328, looked up): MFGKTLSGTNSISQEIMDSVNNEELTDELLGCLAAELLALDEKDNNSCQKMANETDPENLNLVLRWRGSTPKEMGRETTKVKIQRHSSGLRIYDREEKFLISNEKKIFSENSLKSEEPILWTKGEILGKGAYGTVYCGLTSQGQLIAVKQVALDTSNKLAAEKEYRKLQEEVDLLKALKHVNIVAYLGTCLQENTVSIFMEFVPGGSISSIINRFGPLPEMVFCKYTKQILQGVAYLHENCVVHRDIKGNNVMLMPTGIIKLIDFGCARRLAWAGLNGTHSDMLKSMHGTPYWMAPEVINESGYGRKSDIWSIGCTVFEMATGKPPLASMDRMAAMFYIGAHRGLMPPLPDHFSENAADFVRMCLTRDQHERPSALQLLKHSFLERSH

MAP3K19, construct: aa941-end (from UniProt Q56UN5)
relative phosphorylation
Conditions	at +1	at +2	at +3	at +4	at -1	at -2	at -3	at -4	at -5
A fixed	0.458	0.666	0.903	0.975	0.853	1.02	0.971	1.05	1.27
D fixed	0.354	0.662	0.8	0.995	1.51	1.22	1.46	1.14	1.18
E fixed	0.386	0.508	0.765	0.822	0.913	0.851	1.03	1.1	0.864
F fixed	1.33	0.605	0.974	0.784	0.832	1.67	0.921	1.04	1.08
G fixed	0.531	0.809	1.15	1.23	0.867	0.977	1.16	1.16	1.24
H fixed	0.999	1.35	1.1	1.12	1.25	1.34	1.08	1.06	1.13
I fixed	1.7	0.677	0.741	0.801	0.586	0.558	0.65	0.701	0.679
K fixed	0.396	2.23	1.32	1.38	1	0.363	0.877	0.834	0.892
L fixed	2.2	0.55	0.818	0.817	1.13	0.506	0.725	0.883	0.736
M fixed	1.56	0.625	0.803	0.863	1.03	0.821	0.95	0.969	0.87
N fixed	0.52	1.43	1.22	1.05	1.25	1.08	1.39	1.1	1.05
P fixed	0.202	0.646	1.27	1.34	1.08	0.687	0.953	1.06	1.01
Q fixed	0.485	0.932	0.986	1.26	0.941	0.856	1.04	0.936	0.818
R fixed	0.433	3	1.18	1.05	0.914	0.484	0.923	0.888	1.02
V fixed	1.17	0.883	0.919	0.756	0.615	0.599	0.606	0.81	0.879
W fixed	2.7	0.673	1.06	0.916	0.841	1.79	1.21	1.21	1.28
Y fixed	1.57	0.755	0.982	0.838	1.38	2.18	1.05	1.05	1.02
pThr fixed	0.786	1.14	1.09	1.08	0.755	0.741	1.09	1.13	1.19
pTyr fixed	0.541	0.47	0.675	0.662	1.35	0.832	1.09	0.908	0.807

MAP2K2, construct: aa306-end (from UniProt P36507)
relative phosphorylation
Conditions	at +1	at +2	at +3	at +4	at -1	at -2	at -3	at -4	at -5
A fixed	0.617	1.06	0.962	0.933	0.978	0.833	1.06	0.961	1.08
D fixed	1.32	0.532	0.643	0.706	0.63	0.982	0.744	1.13	1.01
E fixed	0.689	0.364	0.589	0.62	0.606	0.819	0.803	1.01	0.781
F fixed	1.49	0.907	1.05	0.995	1.19	2.06	1.51	1.05	0.965
G fixed	0.624	0.787	1.22	1.08	1.35	0.713	0.737	1.14	1.07
H fixed	0.836	3.02	1.3	1.08	1.01	2.51	0.945	1.04	0.996
I fixed	1.55	0.963	1.02	0.968	0.735	0.626	1.18	0.808	0.73
K fixed	0.453	0.771	0.833	0.882	1.03	0.674	0.649	0.799	1.01
L fixed	1.46	0.795	0.981	0.927	1.49	0.763	1.4	0.984	0.789
M fixed	1.89	1.13	0.865	0.862	1.32	1.09	1.58	1.05	0.943
N fixed	0.537	0.756	0.744	0.755	0.696	0.768	0.63	0.921	0.962
P fixed	0.347	0.681	0.947	1.02	0.494	0.46	0.691	0.857	1.11
Q fixed	0.625	0.8	0.742	0.79	0.842	0.705	0.585	0.835	0.819
R fixed	0.474	0.847	0.926	0.985	1.34	0.966	0.787	0.929	1.1
V fixed	1.03	0.875	0.933	0.74	0.874	0.562	0.885	0.789	1.14
W fixed	1.36	1.18	1.51	1.96	1.08	1.29	1.38	1.38	1.25
Y fixed	1.7	1.54	1.73	1.69	1.34	1.18	1.44	1.31	1.25
pThr fixed	0.823	0.505	0.611	0.607	0.404	0.431	0.575	0.741	0.914
pTyr fixed	0.886	0.37	0.827	0.673	0.592	0.431	0.675	0.795	0.953
